Tests used:
catalase [1] = experiment: Catalase activity in the stomach condition (HCl pH 1.3, with or without pepsin); type: biochemical; conditions: pH 1.3, 20 minutes, pepsin-treated or pepsin-untreated (FIG. 5, FIG. 6)
Protocol: (§1) In the prolamin-based film for oral delivery containing catalase, the activity of catalase was measured by checking the decomposition rate of hydrogen peroxide (H2O2). The activity of catalase was measured by mixing catalase or the prolamin-based film for oral delivery containing catalase with 10 μM of H2O2 in a buffering solution of pH 7.0, and then monitoring the absorbance value of H2O2 at 240 nm. Further, in the prolamin-based film for oral delivery containing SOD, SOD activity was measured in accordance with the manufacturer's instructions by using SOD assay kit (SOD determination kit 19,160, Fluka, St. Louis, Mo.). Significance of results was determined via t-test between Zein film and other films containing SOD or catalase with p<0.05(*).
The function of Zein in protecting an anti-oxidative protein in the stomach condition was evaluated. In order to mimic the stomach condition, catalase or the prolamin-based film for oral delivery containing catalase was added into hydrochloric acid solution (50.1 mM HCl, pH 1.3) and left for 20 minutes. […] The activities of catalase and SOD were measured in the same manner as Example 2-1. Significance of results was determined via t-test between free enzymes and other delivery vehicles with p<0.05(*).

catalase [2] = experiment: Catalase activity by decomposition rate of H2O2 (absorbance at 240 nm), pH 7.0; type: biochemical; conditions: free enzyme vs enzyme contained in film (FIG. 2, FIG. 3)
Protocol: as §1
The activities of catalases contained in the film for oral delivery as prepared in the Comparative Example 1-1 and Example 1-1 were compared. […] 1 mg of each formulation was taken to check the quantity of fluorescence which was then compared with the initially used quantity of fluorescence, resulting in the determination of the quantity of catalase in each formulation. The activity of catalase was evaluated at pH 7.0 as described in Example 2-1 by using fluorescent-unbound catalase, forming Zein Nanoparticle and Film, and taking 1 mg of each formulation. […]

catalase [3] = experiment: Catalase activity in the small intestine condition (pH 7.4, with or without trypsin); type: biochemical; conditions: pH 7.4, 30 minutes
Protocol: as §1
In order to mimic the small intestine condition, test groups were divided into […] Trypsin-treated group and Trypsin-untreated group, respectively, while being left for 30 minutes in the environment of pH 7.4.
The activities of catalase and SOD were measured in the same manner as Example 2-1. Significance of results was determined via t-test between free enzymes and other delivery vehicles with p<0.05(*).

Human Skin Fibroblasts = conditions: Silverberg et al. 2012; cited from earlier work

Compound: catalase
- relative activity of catalase in the stomach condition (catalase [1]): lost almost completely its activity
- relative activity of catalase (catalase [2]): approximately similar to those as contained in the Zein-based film
- relative activity of catalase in the small intestine condition, Trypsin-treated (catalase [3]; Trypsin-treated group (FIG. 8, FIG. 9)): lost its activity significantly
- relative activity of catalase at pH 7.4, Trypsin-untreated (catalase [3]; Trypsin-untreated group (FIG. 8)): maintained its activity

Compound: Cn1c(=O)c2c(ncn2C)n(C)c1=O [Caffeine, caffeine]
- protection of cells from reactive oxygens (Human Skin Fibroblasts): able to protect cells from reactive oxygens
